How the values were obtained:
[1] = biological target: BiP NBD (human BiP nucleotide binding domain, aa 26-405, from 6His-Smt3-BiP NBD) (human) (UniProt P11021); test: MST
[2] = biological target: BiP NBD (human BiP nucleotide binding domain, aa 26-405, from 6His-Smt3-BiP NBD) (human) (UniProt P11021); test: SPR

UniProt P11021, sequence (P11021 26-405): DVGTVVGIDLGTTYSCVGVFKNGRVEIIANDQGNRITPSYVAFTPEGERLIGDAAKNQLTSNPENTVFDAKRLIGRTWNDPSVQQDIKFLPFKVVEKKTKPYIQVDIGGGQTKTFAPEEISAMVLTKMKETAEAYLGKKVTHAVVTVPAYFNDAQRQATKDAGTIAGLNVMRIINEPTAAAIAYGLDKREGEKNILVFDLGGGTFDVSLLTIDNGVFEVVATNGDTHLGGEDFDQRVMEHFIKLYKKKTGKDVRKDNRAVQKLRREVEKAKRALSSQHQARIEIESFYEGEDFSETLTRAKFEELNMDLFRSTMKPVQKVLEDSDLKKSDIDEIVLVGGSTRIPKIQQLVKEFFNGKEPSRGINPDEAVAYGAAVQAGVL

Kd [1]	Kd [2]	Substance
> 10 µM	–	CDNF A134Q purified from CHO cells (natural protein)
> 10 µM	–	CDNF V118Y-E137A double mutant purified from CHO cells (natural protein)
–	23.4 µM	FL-CDNF (aa 1-161) purified from E. coli (natural protein)
